Key:
[1] = Safety of enzyme digestion of RWM: ABR before and after surgery; format: in vivo, guinea pig; settings: 12 ears, 2-4 weeks after surgery
Protocol: (§1) The reaction time was 10 minutes.
ABR was tested in animals underwent gene transfection before and just before the animal was killed for morphology.
(§2) The transfection is through intact round window membrane (RWM). Under appropriate anesthesia, a cut of 2 cm is made posterior to the earlap and the soft tissue is distracted to expose the mastoid. The round window of the guinea pig is exposed by drilling a small hole of 2-3 mm in diameter on the mastoid. Solution of collagenase II is freshly prepared at concentration of 150 units/ml. With the help of a microinjection pump, a total of 10 μl enzyme solution is applied to the round window niche at a flow rate of 10 nl/sec. After reaction time of 10 minutes, residual enzyme solution is sucked out first using suction pump and then use gelfoam. A piece of gelfoam (2-3 mm^3) is placed upon RWM and then 5 μl AAV-GFP is applied to the gelfoam. The hole of mastoid is covered by suturing the soft tissue. Hearing status is evaluated using audiotory brainstem response (ABR).

cochlear hair cells = experiment: Enzyme facilitated cochlear gene transfection with AAV through round window membrane; format: in vivo, guinea pig; settings: after digestion of RWM
Protocol: as §1
For inner ear gene transfection, a piece of gelfoam (1-2 mm^3) was placed gently on RWM. 5 ul AAV solution was applied to the gelfoam. The cochlea was taken out for cochlea immunostaining against GFP 2-4 weeks after the surgical application of AAV vectors.
as §2, with “A piece of gelfoam (2-3 mm^3) is placed upon RWM and then 5 μl AAV-GFP is applied to the gelfoam. The hole of mastoid is covered by suturing the soft tissue.” left out
The transfection is evaluated 2 weeks after the surgery. […] GFP positive hair cells are counted along the length of the cochlear duct. […]
A post-auricular approach was used to expose the tympanic bony bulla. […] The duration for the digestive treatment varied from 5 to 10 minutes and the quantity of the digestive solution 5 to 10 μl. […]

[2] = SEM/TEM examination of round window membrane after enzyme digestion
Protocol: Under appropriate anesthesia, the round window of the guinea pig was surgically exposed and inspected visually under a surgical microscope. Freshly prepared collagenase solution of 2-3 ul was applied to the round window niche with the help of a microinjection pump. The reaction time was 10 minutes. The residual solution was then sucked out and the RWM was washed with saline. The collagenase was used at a concentration of between 50 unit/ml to 200 unit/ml. In one example, the concentration used was 150 unit/ml. In the example provided here, the collagenase was collagenase from Clostridium histolyticum, Type II (available from Sigma).
To evaluate the damage of the digesting solution on RWW, the animal was killed immediately after the digestion and the cochleae were taken out and fixed with standard protocol for electronic microscopy. To evaluate if the damaged RWM heals spontaneously, some other animals were allowed to survive for 3 weeks before the RWMs were taken for examination.
Under deep anesthesia with an overdose of pentobarbital (100 mg/kg), the animal was decapitated and the temporal bone was rapidly removed and the cochlea extracted. To examine the RWM, the cochlea was immersed into a fixative of 2.5% glutaraldehyde overnight at 4° C., and post fixed in 2% OsO4 for 2 hours. […]

Substance: collagenase
- ABR threshold shift ([1]; 32, 48 kHz): less than 15 dB
- hearing loss ([1]; other frequencies tested): no hearing loss
- permeability of RWM to AAV (cochlear hair cells): makes RWM permeable to AAV
- damage to RWM (SEM, TEM) ([2]; 3 weeks after the treatment): no difference from normal control
- damage to RWM (SEM, TEM) ([2]; immediately after the treatment): causes damage to the epithelia facing middle ear

Source: patent US20130095071A1, “METHOD OF TREATING OR PREVENTING HEARING LOSS” (Audigen Inc., priority 2009, published 2013)
